Target: monomeric p51 subunit of HIV-1 RT (HIV-1) (UniProt P03366)
Assay: size-exclusion chromatography, 3.5 µM p51 with 20 µM FITC-PAW

Q: How did the percent of p51 dimeric turn out when “monomeric p51 subunit of HIV-1 RT (from UniProt P03366 600-1039) (enzyme)” was run?
A: 4.6%

From US20110294728A1, “Antiviral Polypeptides” (priority 2008, published 2011)
